Measurements from publication PMC4503980 (Scientific Reports, 2015).
Values belong to the molecule of their own block, whether it stands above or below them. Ends that are not written are not given here. Peptide text beside a SMILES is read from it. * marks the point of attachment. 5TAMRA = CN(C)c1ccc2c(c1)Oc1cc(N(C)C)ccc1C21OC(=O)c2cc(C(=O)*)ccc21

Tests used:
nNOS-PDZ = biological target: T1, nNOS-PDZ (Homo sapiens, UniProt P29475); assay: FP saturation, TAMRA-Cnskr2 / nNOS-PDZ; assay type: binding; conditions: TAMRA-Cnskr2 5 nM, read-out: Kd probe / nNOS-PDZ
T1 construct: nNOS-PDZ (12–130, human); made in house; host or cells: E. coli
Source text: (§1) First we tested a series of 23 fluorescent-labelled C-terminal peptide ligands (Supplementary Table S1) derived from PDZ-interacting proteins in order to find a probe with good activity towards the PSD-95 PDZ domains and no or little activity against nNOS-PDZ (Supplementary Fig. S1). The Cnskr2 probe fulfilled these selectivity criteria and was used to generate saturation curves with PDZ2 and PDZ1-2 of PSD-95 (Fig. 4a). […] Next, fixed concentrations of TAMRA-Cnskr2, PSD-95-PDZ2/1-2, and nNOS-PDZ were applied, corresponding to the conditions at IC50 of the nNOS-PDZ inhibition curve (Fig. 4b) where sensitivity of the assay is greatest. […] Here, we used the Sapk3-peptide as it has the desired high affinity to α1-Syntrophin-PDZ and low affinity to nNOS-PDZ (Supplementary Fig. S1).
(§2) The minor increases in mP at high concentrations, 260-2900 μM, were due to fluorescence artefacts.
(§3) Incubation time was 10–15 minutes (room temperature), and the assay was performed in a 1 × TBS buffer (150 mM NaCl, 10 mM Tris, pH 7.4) using black flat-bottom 384-well plates (Corning Life Sciences, NY) and a Safire2 plate-reader (Tecan, Männedorf, Switzerland). […] TAMRA- and Cy5-probes were measured at excitation/emission values of 530/585 nm (bandwidth = 20 nm) and 635/670 nm (bandwidth = 15 nm), respectively. […]

PSD-95-PDZ1-2 = biological target: T2, PSD-95-PDZ1-2 (Homo sapiens, UniProt P78352); assay: FP saturation and inhibition, TAMRA-Cnskr2 / PSD-95-PDZ1-2; assay type: binding; conditions: TAMRA-Cnskr2 5 nM
T2 construct: PDZ1-2 (61-249); made in house; host or cells: E. coli BL21-DE3 pLysS
Source text: as §1, §2, §3

PSD-95-PDZ2 [1] = biological target: T3, PSD-95-PDZ2 (Homo sapiens, UniProt P78352); assay: FP saturation and inhibition, TAMRA-Cnskr2 / PSD-95-PDZ2; assay type: binding; design: PDZ2 (155-249); made in house; host or cells: E. coli BL21-DE3 pLysS; conditions: TAMRA-Cnskr2 5 nM
Source text: as §1, §2, §3

TAMRA-Cnskr2 = assay: fluorescence polarisation; saturation binding: increasing PDZ domain protein (typically 0-150 μM) added to a fixed low concentration of TAMRA- or Cy5-labelled probe (5 or 50 nM); 1 x TBS (150 mM NaCl, 10 mM Tris, pH 7.4), 10-15 min, room temperature
Cy5-Nav1.4 = assay: as above
[2] = biological target: PDZ2 (155-249) from PSD-95 (human); assay: fluorescence polarisation; inhibition of TAMRA-Cnskr2 (5 nM)/PDZ2 (1.5 μM) or PDZ1-2 (1 μM) by increasing unlabelled nNOS-PDZ or GluN2B-C5; 1 x TBS pH 7.4; Ki calculated from IC50
[3] = biological target: PDZ1-2 (61-249) from PSD-95 (human); assay: as above
[4] = biological target: T4, extended Mus musculus nNOS-PDZ (residues 12-134) (Mus musculus, UniProt Q9Z0J4 12-134); assay: ITC; 25 °C, 20 mM phosphate buffer pH 6.3; 100 μM PDZ2 in the cell titrated with 750 μM nNOS-PDZ; one-site model; conditions: both partners purified
T4 construct: neuronal nitric oxide synthase (nNOS), Mus musculus, extended PDZ domain, residues 12-134, Uniprot Q9JJ30; Construct of the ITC and NMR experiments; 15N-labelled in some NMR samples; also called extended nNOS-PDZ; source: sub-cloned into pETM11, expressed and purified following a similar protocol to that of PSD-95-PDZ2

PSD-95-PDZ2 [5] = biological target: T3, PSD-95-PDZ2; assay: ITC titration into PSD-95-PDZ2; assay type: binding; design: PSD-95-PDZ2 (157–249, human); made in house
Source text: Unlike the FP experiments above, which rely on inhibition of interaction partners, the ITC method is a direct measure of binding, regardless of where it takes place on the protein.
Figure 5 ITC curves. Plots showing titrations into PDZ domains fitted to a one-site model.
For isothermal titration calorimetry (ITC) and NMR, PSD-95-PDZ2 (157–249, human) was expressed and purified as described previously. The sequence for the extended Mus musculus nNOS-PDZ (residues 12–134, Uniprot Q9JJ30) was sub-cloned into a pETM11 vector using cloning sites Nco1 and Kpn1, and the protein was expressed and purified following a similar protocol to that used for the production of PSD-95-PDZ2.
All ITC experiments were carried out at 25 °C on an iTC200 Microcalorimeter (GE Healthcare) with a 200 μL cell capacity and 40 μL syringe volume. The buffer used for all solutions was 20 mM phosphate buffer at pH 6.3; each experiment consisted of an initial injection of 0.5 μL, followed by fifteen 2.39 μL injections before a final injection of 1.89 μL. […] In both cases no heat exchange was detected, confirming that there was appropriate match of buffer conditions with no indication of dilution effects. […] For the nNOS-PDZ/PSD-95-PDZ2 interaction, 100 μM PDZ2 in the cell was titrated with 750 μM nNOS-PDZ. […] All data was analysed using the Origin®7 software programme.

[6] = biological target: PDZ2 (155-249) from PSD-95 (human); assay: fluorescence polarisation; 'direct' FP inhibition assay: TAMRA-nNOS (5 nM) with fixed PDZ1 (7.5 μM), PDZ2 (2.5 μM) or PDZ1-2 (0.3 μM); increasing control compound; 1 x TBS pH 7.4
[7] = biological target: PDZ1 (61-151) from PSD-95 (human); assay: as above
[8] = ITC, nNOS-PDZ titrated into PSD-95-PDZ2

Kd (nNOS-PDZ): > 190000 nM
Kd (PSD-95-PDZ1-2; saturation, read-out: Kd probe / PSD-95-PDZ1-2): 1100 ± 100 nM
Kd (PSD-95-PDZ2 [1]; saturation, read-out: Kd probe / PSD-95-PDZ2): 380 ± 30 nM
Molecule: CC[C@H](C)[C@H](NC(=O)[C@H](Cc1ccc(O)cc1)NC(=O)[C@H](CO)NC(=O)[C@H](Cc1c[nH]cn1)NC(=O)[C@@H](NC(=O)[C@H](Cc1c[nH]cn1)NC(=O)CNC(=O)[C@H](CC(N)=O)NC(=O)[C@H](CC(N)=O)NC(=O)c1ccc2c(c1)C(=O)OC21c2ccc(N(C)C)cc2Oc2cc(N(C)C)ccc21)[C@@H](C)O)C(=O)N[C@@H](CCC(=O)O)C(=O)N[C@H](C(=O)N[C@@H](Cc1c[nH]cn1)C(=O)N[C@H](C(=O)O)C(C)C)[C@@H](C)O [TAMRA-Cnskr2] (5TAMRA-NNGHTHSYIETHV-OH)

Kd (TAMRA-Cnskr2): > 190000 nM
Kd (Cy5-Nav1.4): 20000 nM
Ki [2]: 88 nM
Ki [3]: 810 nM
Molecule: nNOS-PDZ (12-130, human) (from UniProt P29475 12-130) (domain or fragment)

B1: PSD-95-PDZ2 (157-249, human) (domain or fragment, UniProt P78352 157-249, looked up)
chain: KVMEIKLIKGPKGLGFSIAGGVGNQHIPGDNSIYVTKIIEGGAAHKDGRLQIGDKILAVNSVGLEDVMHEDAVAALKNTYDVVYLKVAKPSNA
notes: PSD-95, human, PDZ2 domain, residues 157-249; Construct of the ITC and NMR experiments; 15N-labelled in some NMR samples
Kd [4]: ~670 nM

Kd (PSD-95-PDZ2 [5]; 100 μM PDZ2 in cell titrated with 750 μM nNOS-PDZ, pH 6.3, 25 °C): ~670 nM
N (stoichiometry ratio) (PSD-95-PDZ2 [5]; [8]): 1.0
T∆S (PSD-95-PDZ2 [5]; [8]): ~6.7 kcal/mol
∆H (PSD-95-PDZ2 [5]; [8]): ~-1.7 kcal/mol
Ki (PSD-95-PDZ1-2; PDZ1-2 1 μM): 810 ± 23 nM
Ki (PSD-95-PDZ2 [1]; PDZ2 […]): 88 ± 14 nM
B2: nNOS-PDZ: recombinant extended PDZ domain of nNOS (12–130 human for FP; 12–134 Mus musculus for ITC/NMR) (protein, UniProt P29475 12-130, looked up, fragment)
chain: QPNVISVRLFKRKVGGLGFLVKERVSKPPVIISDLIRGGAAEQSGLIQAGDIILAVNGRPLVDLSYDSALEVLRGIASETHVVLILRGPEGFTTHLETTFTGDGTPKTIRVTQPLGPPT

Ki [6]: 2000 nM
Ki [7]: 3900 nM
B3: N-cyclohexylethyl-ETAV (peptide)
peptide: {N‑cyclohexylethyl}-ETAV
